Assay results published in patent publication US20210253731A1 (BETH ISRAEL DEACONESS MEDICAL CENTER, published 2021).
One block for each binder: values may come before it.

What was measured:
human CD39 = biological target: T1, human CD39 (human, UniProt P49961 38-478, limits assumed); assay: assay not described
T1 construct: Target as named in the general statements on 5F2 and PB1-PB5 specificity; also called hCD39; ectonucleoside triphosphate diphosphohydrolase-1
T1 sequence (looked up): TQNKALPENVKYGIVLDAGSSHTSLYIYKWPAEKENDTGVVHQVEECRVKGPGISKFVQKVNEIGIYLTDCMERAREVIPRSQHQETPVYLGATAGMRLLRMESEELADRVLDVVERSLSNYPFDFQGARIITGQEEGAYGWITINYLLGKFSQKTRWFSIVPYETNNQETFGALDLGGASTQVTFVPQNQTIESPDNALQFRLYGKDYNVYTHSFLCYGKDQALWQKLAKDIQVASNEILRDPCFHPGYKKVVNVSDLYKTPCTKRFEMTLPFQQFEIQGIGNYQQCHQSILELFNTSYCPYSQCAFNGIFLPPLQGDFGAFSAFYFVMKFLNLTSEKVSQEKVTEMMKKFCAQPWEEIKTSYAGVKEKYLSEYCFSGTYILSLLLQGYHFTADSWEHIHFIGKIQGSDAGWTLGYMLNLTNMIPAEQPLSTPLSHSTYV

mouse CD39 = biological target: T2, mouse CD39 (mouse, UniProt P55772 38-478, limits assumed); assay: assay not described
T2 construct: Target as named in the general statement on 5F2 specificity; also called mCD39
T2 sequence (looked up): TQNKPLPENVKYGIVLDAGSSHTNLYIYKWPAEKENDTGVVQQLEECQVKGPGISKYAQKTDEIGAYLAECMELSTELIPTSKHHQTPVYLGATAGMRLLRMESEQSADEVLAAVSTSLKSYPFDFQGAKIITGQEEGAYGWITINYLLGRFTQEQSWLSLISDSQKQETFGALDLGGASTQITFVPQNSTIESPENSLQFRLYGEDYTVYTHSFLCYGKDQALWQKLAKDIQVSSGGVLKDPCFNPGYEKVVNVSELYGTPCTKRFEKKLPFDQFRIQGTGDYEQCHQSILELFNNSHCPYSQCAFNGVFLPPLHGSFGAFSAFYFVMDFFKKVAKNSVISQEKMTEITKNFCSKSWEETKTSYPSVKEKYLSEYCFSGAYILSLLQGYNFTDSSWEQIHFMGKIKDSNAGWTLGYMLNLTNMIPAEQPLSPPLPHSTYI

binding result (human CD39): binds
binding result (mouse CD39): binds
B1: murine monoclonal 5F2 (anti-CD39 antibody) (antibody, V domains shown)
VH: EVQLEESGPGLVQPSQRLSITCTISGFSLTSYGIHWVRQSPGKGLEWLGVIWSGGNTDYNAAFISRLSISKDNSKSQVFFKMNSLQVGDTATYYCARNGHGSNIPWFVYWGQGTLVTVST
VL: DIQLTQSPASLSVATGEKVTIRCITSTDVDDDMNWFQQKPGEPPNLLISEGDTLRPGVPSRFSSSGYGTDFVFTIENTLSEDVADYYCLQSDNMPLTFGGGTKLEIK
notes: also called anti-CD39 5F2 antibody; 5F2 mAb

binding result (human CD39): binds
B2: PB4 rabbit monoclonal anti-human CD39 antibody (antibody, V domains shown)
VH: QEQLVESGGGLVQPEGSLTLTCTASGFSFSSSYYMCWVRQAPGKGLEWIGCIYIGSSTTYYATWAKGRFTISKTSSTAVTLQMTGLTAADTATYFCARDQYDDSGNLWGPGTLVTVSS
VL: DVVMTQTPASVSEPVGGTVTIKCQASQSIYSGLAWYQQKPGQPPNLLIYKASNLASGVSSRFKGSRSGTEYTLTISDLECADAATYYCQNWYGISSYGRAFGGGTEVVVKG
notes: Full rabbit heavy and light chains
